Reference: the supplement of paper PMC9170038

System: MS2 coat protein
Test: apparent KD of MS2 coat protein; designed switch direction (-1 OFF switch, 1 ON switch): 1; higher = weaker reporter binding
In short: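 Designed RNA switches sharing common flanks were transcribed on Illumina chips by stalled E. coli RNA polymerase. They were titrated with SNAP-549-labelled MS2 coat protein, from 0.7 or 1.5 nM doubling to 3 µM, in Tris-HCl pH 7.5 buffer with KCl, MgCl2, BSA, DTT, tRNA and Tween-20. Titrations ran without input, with 200 uM small-molecule ligand, or with an oligonucleotide input. The apparent KD of each design is the median over its clusters, after curve-fitting of normalised cluster fluorescence.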

[1] = input ligand: microRNA oligo, concentration not stated
[2] = Eterna round: R95, input ligand: FMN 200 uM
[3] = Eterna round: R95, input ligand: microRNA oligo, concentration not stated
[4] = Eterna round: R95, input ligand: none

| Sequence | apparent KD of MS2 coat protein (input ligand: FMN 200 uM) [nM] | apparent KD of MS2 coat protein [1] [nM] | apparent KD of MS2 coat protein (input ligand: none) [nM] | apparent KD of MS2 coat protein [2] [nM] | apparent KD of MS2 coat protein [3] [nM] | apparent KD of MS2 coat protein [4] [nM] |
| --- | --- | --- | --- | --- | --- | --- |
| AUAUGAGAAGCAGGAUAUGUGGAGAAGAAAGAAACAGAAGGGCUUAUGGGACAACAUGAGGAUCACCCAUGUUCUCUGUGAUGA [AK SSNG1-V2-2.1] (Eterna round: R96, puzzle: Same State NG 1) | 42.8 | 144 | 188 | – | – | – |
| GUAUAACAUGAGGAUCACCCAUGUCAACAAAGUCGAGGAUAUGGGCAGAGAGGAGAAGAACCAGAAGGCGAAUAUG [Mat - Same State 1 - Mod of UCT - D37] (puzzle: Same State 1) | – | – | – | 77.8 | 59.2 | 122 |
| UGCCAUUGUAUAUUGGUGCAAGCUUUUUGACAUGAGGAUCACCCAUGUACUCGUCUUAUGUGCAGUCCGUAGACUGC [JL-shm-2.23 Brourd mod] (puzzle: Sensor for hsa-mir-208a) | – | – | – | 24 | 13.5 | 22.8 |
| AUAAAACAUGAGGAUCACCCAUGUCAACAAAGUCGAGGAUAUGGGCAAAUAAAAUUAGAACCAGAAGGCGAAUAAU [salish99_ss1_r3_020] (puzzle: Same State 1) | – | – | – | 34.4 | 330 | 379 |
| AGUCCAGCCAAAGCUGGACAAAAGCAUGUACAUGAGGAUCACCCAUGUCAUGUACAAGCUUUUUGCUCGUCUUAAUA [Mat - hsa-mir-208a - Mod of JL - D38] (puzzle: Sensor for hsa-mir-208a) | – | – | – | 464 | 16 | 611 |
| GGAGCCGGCCUAGGAUAUUUCAUUUUAAAACAUGAGGAUCACCCAUGUAGGCCAGAAGGCCUUGGGAAGAAGGAGGUCGGCUCC [Loop Effect - U24,U25,U26] (Eterna round: R96, puzzle: Same State NG 2) | 17.4 | 33.2 | 69.3 | – | – | – |
| GUACAGAUUAUAGGAUAUCACGUCGAUUAGACGUGAGAAGGAUAAUCACACAUGAAUAUUAAUACAUGAGGAUCACCCAUGUAC [SSNG1/17-A2] (Eterna round: R96, puzzle: Same State NG 1) | 12.9 | 12.9 | 17 | – | – | – |
| GGUGCACGGUGACGUGCACGGUAGUGCGUACAUGAGGAUCACCCAUGUCAUGUAGGAGUUACUUGUUCGUCUUGAAC [SENSOR #2] (puzzle: Sensor for hsa-mir-208a) | – | – | – | 28.7 | 22.8 | 25.4 |
| CCUUAACAUGAGGAUCACCCAUGUAACAAGGAGUAAGGAUAUACAUGGGAAAACAGUCAUGUAGAAGGUACAAAAG [Rexereon] (puzzle: Same State 1) | – | – | – | 15 | 11.8 | 18 |
| UUCUCACAUGAGGAUCACCCAUGUGAGCCUCUGUGAGGAUAUCCGACAUAAUUAAUUGAAGGAGAAGGUACACGAG [Leer] (puzzle: Same State 1) | – | – | – | 130 | 4.78 | 24.9 |
| GUCCGGCUGCCACAGGAUAUACGUGGAUCGACAUGAGGAUCACCCAUGUAUAUCCUAAUAAUUGCGUAGAAGGGUGGUCAGCCGG [Dionbe] (Eterna round: R96, puzzle: Same State 2) | – | 507 | – | – | – | – |
| CUUCUUCCUUUUACAUGAGGAUCACCCAUGUUUUCAUAUUGAGAGGAUAUCGUAUUUGGAAACAUCGAGAAGGCUCAUUUGUAU [JR_SSNG3_Sub074] (Eterna round: R96, puzzle: Same State NG 3) | 78.6 | 98.6 | 223 | – | – | – |
| GCUCGUGGUAUUGUCUACAUGAGGAUCACCCAUGUGGGUGCGGAGGAUAUCUACGUGUCUCAUGUAGAGAAGGUCGUCACGAGC [SameState NG3 #100] (Eterna round: R96, puzzle: Same State NG 3) | 119 | 119 | 102 | – | – | – |
| GAGGGACAGACCAACAUGAGGAUCACCCAUGUCCUCGCAGGUCAGGAUAUUAUGAGGAUCACCCAUGAGAAGGGACGGUGAACC (Eterna round: R96, puzzle: Same State NG 3) | 587 | 340 | 491 | – | – | – |
| UGUUGUAUUACAGGAUAUCUAUUAUUUUUAUUUAGAGAAGGGUAUUCACAUGAGGAUCACCCAUGUAUAUACGAGGAAGAUGUG [JMF's solution 5] (Eterna round: R96, puzzle: Same State NG 1) | – | 60.4 | – | – | – | – |
| GUGGUCAGACAUGAGGAUCACCCAUGUGGAAUAAAUAACGGACAGGAUAUAUAAUAUAGGAUAUAGUAGAAGGGUUGAUUGGUG (Eterna round: R96, puzzle: Same State NG 3) | 85.8 | 57.7 | 60.2 | – | – | – |
